According to US5436138A, “Method for protein N-myristoylation” (Washington University, priority 1993, dated 1995):
Substitutions are numbered along the chain they refer to. Where a SMILES comes first, the peptide text is derived from it.

Columns and labels:
[1] = target: T1, 45 kDa E. coli NMT (NMT missing the NH2-terminal 39 residues) (Saccharomyces cerevisiae, UniProt P14743); assay: coupled in vitro assay for NMT activity, 45 kDa E. coli NMT; assay type: biochemical, S. cerevisiae; conditions: for Vmax, 45 kDa E. coli NMT: percentage of Vmax with GNAAAARR and myristoyl-CoA; for Km: peptide substrate varied
T1 construct: S2A lies in the removed part
T1 sequence (P14743 40-455): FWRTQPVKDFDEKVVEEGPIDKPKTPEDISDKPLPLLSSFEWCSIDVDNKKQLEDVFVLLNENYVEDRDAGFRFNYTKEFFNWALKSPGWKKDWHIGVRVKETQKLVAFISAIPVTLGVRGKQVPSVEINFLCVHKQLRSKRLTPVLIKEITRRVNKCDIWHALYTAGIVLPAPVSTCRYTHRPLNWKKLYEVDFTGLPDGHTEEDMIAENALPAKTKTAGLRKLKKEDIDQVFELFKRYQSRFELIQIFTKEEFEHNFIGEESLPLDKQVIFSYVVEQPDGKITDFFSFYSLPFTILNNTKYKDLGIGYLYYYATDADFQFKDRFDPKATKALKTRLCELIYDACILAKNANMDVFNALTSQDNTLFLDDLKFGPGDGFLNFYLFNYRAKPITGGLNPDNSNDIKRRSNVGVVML
Experimental: (§1) In vitro assay system for NMT activity. To assess the peptide and acyl-CoA substrate specificities of E. coli-derived S. cerevisiae NMT, crude lysates or partially purified enzyme preparations were added to a coupled in vitro assay system [Towler and Glaser, Proc. Natl. Acad. Sci. USA 83, 2812-2816 (1986)]. The first step of this assay involves enzymatic conversion of radiolabeled fatty acids to their CoA thioesters by Pseudomonas acyl-CoA ligase. This ligase is largely nonspecific for fatty acid substrates [Shimizu et al., Anal. Biochem. 107, 193-198 (1980)]. Octapeptide substrates and NMT were then added to produce acylpeptides. Acylpeptides were purified from the reaction mixture by trichloroacetic acid/methanol precipitation and C18 reverse phase HPLC using a linear gradient of acetonitrile in water [Towler and Glaser, Proc. Natl. Acad. Sci. USA 83, 2812-2816 (1986)].
To obtain a homogenous preparation of the enzyme, E. coli-produced NMT was further purified by Mono S fast protein liquid chromatography (FPLC).
(§2) The peptide Km and Vmax values shown in the above Table I are averages obtained from 4- or 5-point Lineweaver-Burke plots. These plots were produced using data generated in at least three independent in vitro NMT assays. Varying concentrations of peptides were assayed with 15 μM myristate to determine peptide Km and Vmax values. […] Yeast NMT was from a 570 fold purified preparation [Towler et al., Proc. Natl. Acad. Sci. USA 84, 2708-2712 (1987)]. Synthetic peptide substrates are represented by their conventional one letter amino acid code. […] ND=not determined.

[2] = target: T2, Yeast NMT (partially purified from S. cerevisiae) (Saccharomyces cerevisiae, UniProt P14743); assay: coupled in vitro assay for NMT activity, Yeast NMT; assay type: biochemical; conditions: for Vmax, Yeast NMT: percentage of Vmax with GNAAAARR and myristoyl-CoA; for Km: peptide substrate varied, 570 fold purified preparation
T2 sequence (P14743 1-455): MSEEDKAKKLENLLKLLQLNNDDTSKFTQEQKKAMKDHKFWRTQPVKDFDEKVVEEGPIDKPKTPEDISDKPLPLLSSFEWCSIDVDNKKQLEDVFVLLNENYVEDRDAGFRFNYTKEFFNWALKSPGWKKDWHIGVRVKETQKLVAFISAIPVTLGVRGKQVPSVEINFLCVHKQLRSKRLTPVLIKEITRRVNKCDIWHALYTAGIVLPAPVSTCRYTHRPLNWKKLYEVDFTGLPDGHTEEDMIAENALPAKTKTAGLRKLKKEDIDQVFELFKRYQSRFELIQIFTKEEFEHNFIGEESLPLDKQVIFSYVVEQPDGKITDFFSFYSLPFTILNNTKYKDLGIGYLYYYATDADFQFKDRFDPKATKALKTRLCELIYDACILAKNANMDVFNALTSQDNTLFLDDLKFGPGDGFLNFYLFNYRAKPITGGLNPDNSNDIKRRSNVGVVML
Experimental: as §1, §2

[3] = target: T3, E. coli-derived S. cerevisiae NMT (Total E. coli NMT) (Saccharomyces cerevisiae, UniProt P14743, S2A); assay: coupled in vitro assay for NMT activity, Total E. coli NMT; assay type: biochemical; conditions: 15 μM myristate; for Vmax, Total E. coli NMT: peptide substrate, percentage of Vmax with GNAAAARR and myristoyl-CoA; for Km: peptide substrate varied
T3 construct: intact 53 kDa (codon 2 Ser to Ala from cloning) plus 45 kDa truncated form
T3 sequence (P14743 1-455 S2A): T2 sequence (P14743 1-455) with S2A
Experimental: as §1, §2

[4] = target: T4, yeast NMT coexpressed with murine PK-A C-subunit in E. coli strain JM101 (Saccharomyces cerevisiae, UniProt P14743, S2A); assay: [3H]Fatty acid labeling of PK-A C-subunit produced in E. coli coexpressing yeast NMT1; assay type: cell-based, S. cerevisiae; conditions: for incorporation of [3H]fatty acid into the C-subunit of PK-A: E. coli JM101 with NMT1 and wild type Cα plasmids after induction, SDS-PAGE and fluorography
T4 construct: metabolic labeling in cells
Experimental: [^3 H]Fatty acid labeling of PK-A C-subunit produced in E. coli. Four ml cultures of the double transformants were shaken at 37° C. to an OD600 of 0.5 in LB broth+100 μg/ml ampicillin and 100 μg/ml kanamycin sulfate. Isopropyl-β-D-thiogalactopyranoside (IPTG) was then added to a final concentration of 1 mM to induce NMT production (see Results, below). When the cultures reached OD600 =1.0 (approximately 40 min later), nalidixic acid was added to a final concentration of 50 μg/ml to induce C-subunit production (see Results, below). [^3 H]Myristate (New England Nuclear; 39.3 Ci/mmol, 113 μCi added per ml of culture), [^3 H]palmitate (New England Nuclear; 30 Ci/mmol, 143 μCi/ml), or [^3 H]10-(propoxy)decanoate [Heuckeroth and Gordon, Proc. Natl. Acad. Sci. USA 86, 5262-5266 (1989)] (31.7 Ci/mmol, 800 μCi/ml) was added simultaneously with the nalidixic acid. Cultures were shaken for an additional 20 min at 37° C. and the cells were harvested by centrifugation. Lysates were prepared by boiling E. coli contained in the pellet for 10 min in 40 μL of a solution of 125 mM Tris, pH 8.0, 4% SDS, 20% glycerol, 10% β-mercaptoethanol, and 0.2M dithiothreitol. Cell debris was removed by centrifugation and 15 μl aliquots of the supernatant were subjected to SDS-PAGE [Laemmli, Nature 227, 680-685 (1970)] and subsequent fluorography using EN^3 HANCE (New England Nuclear) autoradiography enhancer. For Western blot analyses, 50 μg of reduced and denatured lysate proteins, prepared from unlabeled E. coli producing Gly^2 -C-subunit or Ala^2 -C-subunit, were separated by SDS-PAGE, electroblotted onto nitrocellulose [Burnette, Anal. Biochem. 112, 195-230 (1981)], and the filters probed with polyclonal, monospecific rabbit antisera raised against purified mouse C-subunit. Antigen-antibody complexes were visualized with ^125 I-protein A [Burnette, supra.].

[5] = peptide substrate, 15 μM myristate
[6] = fatty acyl-CoA substrate, 60 μM GNAAAARR

Compound	Vmax, 45 kDa E. coli NMT [1, 5]	Vmax, Yeast NMT [2, 5]	Vmax, Total E. coli NMT [3]	Km [3]	further results
ANAAAARR	Not a substrate	Not a substrate	Not a substrate	–	–
CCCCCCCCCCCCCC(=O)O [[^3 H]Myristic acid, Myristic acid]	–	–	–	–	Pronase E digestion product of the labeled C-subunit ([4]; C18 reverse-phase HPLC): co-migrated with the chemically synthesized [^3 H]myristoylglycine standard; incorporation of [3H]fatty acid into the C-subunit of PK-A [4]: efficiently linked to the Gly^1 residue of the C-subunit; incorporation of [3H]fatty acid into the C-subunit of PK-A ([4]; listed as [^3 H]myristic acid): a 40 kDa protein was metabolically labeled; overall efficiency of NMT-catalyzed linkage of the myristoyl moiety to the C-subunit ([4]; in E. coli, estimated from Western blot, incorporated label and specific activity): ~100%
GSSKSKPK [synthetic octapeptide substrate, one letter amino acid code]	52%	43%	33%	48.5 µM	Km ([1]; 15 μM myristate): 66 µM; Km ([2]; 15 μM myristate): 40 µM
GSAAAARR [synthetic octapeptide substrate, one letter amino acid code]	–	50%	27.6%	697 µM	Km ([2]; 15 μM myristate): 1700 µM
MGNAAAARR	Not a substrate	Not a substrate	Not a substrate	–	–
GDAAAARR [synthetic octapeptide substrate, one letter amino acid code]	< 2%	< 2%	4.2%	645 µM	–
CCCCCCCCCCCCCCCC(=O)SCCNC(=O)CCNC(=O)[C@H](O)C(C)(C)COP(=O)(O)OP(=O)(O)OC[C@H]1O[C@@H](n2cnc3c(N)ncnc32)[C@H](O)[C@@H]1OP(=O)(O)O [Palmitoyl-CoA]	–	–	–	–	Vmax, 45 kDa E. coli NMT [1, 6]: 22.4%; Vmax, Yeast NMT [2, 6]: 21%
GPAAAARR [synthetic octapeptide substrate, one letter amino acid code]	< 2%	< 2%	21.6%	7100 µM	–
GNAADARR [synthetic octapeptide substrate, one letter amino acid code]	< 2%	< 2%	4.9%	503 µM	–
CCCOCCCCCCCCCC(=O)SCCNC(=O)CCNC(=O)[C@H](O)C(C)(C)COP(=O)(O)OP(=O)(O)OC[C@H]1O[C@@H](n2cnc3c(N)ncnc32)[C@H](O)[C@@H]1OP(=O)(O)O [11-oxamyristoyl-CoA]	–	–	–	–	Vmax, 45 kDa E. coli NMT [1, 6]: 450%; Vmax, Yeast NMT [2, 6]: 270%
C[C@H](NC(=O)[C@H](C)NC(=O)[C@H](CC(N)=O)NC(=O)CN)C(=O)N[C@@H](CO)C(=O)N[C@@H](C)C(=O)N[C@@H](CCCNC(=N)N)C(=O)N[C@@H](CCCNC(=N)N)C(N)=O (H-GNAASARR-NH2)	4.9%	3%	3.6%	–	reduction in apparent Km ([1]; relative to GNAAAARR-NH2, Mono S purified 45 kDa NMT): 100 fold
GSAASARR [synthetic octapeptide substrate, one letter amino acid code]	–	34%	29%	2.1 µM	Km ([2]; 15 μM myristate): 3 µM
GYAAAARR [synthetic octapeptide, one letter amino acid code]	< 2%	Not a substrate	< 2%	–	–
CCCCCCCCCCCCCC(=O)SCCNC(=O)CCNC(=O)[C@H](O)C(C)(C)COP(=O)(O)OP(=O)(O)OC[C@H]1O[C@@H](n2cnc3c(N)ncnc32)[C@H](O)[C@@H]1OP(=O)(O)O [Myristoyl-CoA]	–	–	–	–	Vmax, 45 kDa E. coli NMT [1, 6]: 100%; Vmax, Yeast NMT [2, 6]: 100%
C[C@H](NC(=O)[C@H](C)NC(=O)[C@H](C)NC(=O)[C@H](CC(N)=O)NC(=O)CN)C(=O)N[C@@H](C)C(=O)N[C@@H](CCCNC(=N)N)C(=O)N[C@@H](CCCNC(=N)N)C(N)=O (H-GNAAAARR-NH2)	100%	100%	100%	–	Km ([1]; 15 μM myristate): 62.5 µM
ASSKSKPK [synthetic octapeptide, one letter amino acid code]	Not a substrate	Not a substrate	Not a substrate	–	–
CCCOCCCCCCCCCC(=O)O [[^3 H]10-(propoxy)decanoic acid, 10-(propoxy)decanoic acid]	–	–	–	–	incorporation of [3H]fatty acid into the C-subunit of PK-A [4]: effective alternative substrate for NMT that could be incorporated into the C-subunit of PK-A; incorporation of [3H]fatty acid into the C-subunit of PK-A ([4]; listed as [^3 H]11-oxamyristate): could also be labeled in a Gly^2 dependent manner
